Experimental data taken from PMC7226468, “Insight into the RssB-Mediated Recognition and Delivery of σ^s to the AAA+ Protease, ClpXP” (Biomolecules, 2020).

T1: RssB (residues 1–337), untagged (E. coli, UniProt P0AEV1 1-337)
T1 sequence (looked up): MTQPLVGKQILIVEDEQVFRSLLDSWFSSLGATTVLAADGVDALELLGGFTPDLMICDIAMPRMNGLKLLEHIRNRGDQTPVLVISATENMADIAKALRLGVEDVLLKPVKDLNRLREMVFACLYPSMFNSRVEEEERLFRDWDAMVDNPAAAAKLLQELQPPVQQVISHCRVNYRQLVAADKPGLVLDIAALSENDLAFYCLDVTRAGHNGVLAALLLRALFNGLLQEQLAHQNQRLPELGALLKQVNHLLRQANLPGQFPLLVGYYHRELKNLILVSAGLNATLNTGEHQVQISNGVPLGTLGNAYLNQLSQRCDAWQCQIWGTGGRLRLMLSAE


Tests used:
[1] = target: T1, RssB (residues 1–337), untagged; experiment: cell-based or functional assay
[2] = target: the molecule itself; experiment: cross-linking; 0.005% (v/v) glutaraldehyde, 35 μg of each protein, 20 mM Hepes-KOH pH 7.5, 140 mM NaCl, 10 mM MgCl2, time course; SDS-PAGE and immunodecoration (anti-His, anti-RssB or anti-σS antisera)

| Binder | half-life of σS in RssB-mediated turnover by 1.2 µM ClpXP with 2, 5 and 15 µM SspB added (from ~2.5 min without SspB) [1] [min] | stoichiometry N [2] |
| --- | --- | --- |
| His6-tagged zinc binding domain (ZBD) of E. coli ClpX (domain or fragment, UniProt P0A6H1 1-60, looked up, Dimer by glutaraldehyde cross-linking; also called ClpXZBD; ecClpXZBD; source: purified ("Pure ecClpXZBD")) MTDKRKDGSGKLLYCSFCGKSQHEVRKLIAGPSVYICDECVDLCNDIIREEIKEVAPHRE | ~23 | 2 |
| RssBN (residues 1–128), untagged (domain or fragment, E. coli, UniProt P0AEV1 1-128, looked up, RssB, E. coli, N-terminal receiver domain, residues 1-128; also called N-terminal domain of RssB; REC domain; source: Ub-fusion system, purified (IMAC, SEC)) MTQPLVGKQILIVEDEQVFRSLLDSWFSSLGATTVLAADGVDALELLGGFTPDLMICDIAMPRMNGLKLLEHIRNRGDQTPVLVISATENMADIAKALRLGVEDVLLKPVKDLNRLREMVFACLYPSM |  | 2 |
| RssBC (residues 131–337), untagged (domain or fragment, E. coli, UniProt P0AEV1 131-337, looked up, RssB, E. coli, C-terminal effector domain, residues 131-337; also called C-terminal domain of RssB; effector domain; source: Ub-fusion system, purified (IMAC, SEC)) SRVEEEERLFRDWDAMVDNPAAAAKLLQELQPPVQQVISHCRVNYRQLVAADKPGLVLDIAALSENDLAFYCLDVTRAGHNGVLAALLLRALFNGLLQEQLAHQNQRLPELGALLKQVNHLLRQANLPGQFPLLVGYYHRELKNLILVSAGLNATLNTGEHQVQISNGVPLGTLGNAYLNQLSQRCDAWQCQIWGTGGRLRLMLSAE |  | 2 |
